Laboratory results: the Immune Epitope Database (IEDB)
One block for each sequence: values may come before it.

Key:
[1] = target: HLA-A*02:19; test: IEDB peptide-MHC binding, purified MHC/direct/fluorescence; filed as Kd, often an IC50 or EC50 that approximates it; ≥ and ≤ were set here for values at or beyond the usual limits of such assays
[2] = target: HLA-A*02:16; test: as above
[3] = target: HLA-A*02:03; test: as above
[4] = target: HLA-A*29:02; test: as above
[5] = target: HLA-A*24:03; test: as above
[6] = target: HLA-A*03:01; test: as above
[7] = target: HLA-B*40:01; test: as above; conditions: source organism: Orthohantavirus puumalaense
[8] = target: HLA-A*02:11; test: as above
[9] = target: HLA-A*02:12; test: as above
[10] = target: HLA-B*46:01; test: IEDB peptide-MHC binding, purified MHC/competitive/fluorescence; filed as Kd, often an IC50 or EC50 that approximates it; ≥ and ≤ were set here for values at or beyond the usual limits of such assays
[11] = target: HLA-B*27:03; test: as above
[12] = target: HLA-B*39:01; test: as above
[13] = target: HLA-B*51:01; test: as above
[14] = target: HLA-A*26:01; test: as above
[15] = target: HLA-B*57:01; test: as above
[16] = target: HLA-B*15:01; test: as above; conditions: source organism: Orthohantavirus tulaense
[17] = target: HLA-B*18:01; test: as above
[18] = target: HLA-A*29:02; test: as above
[19] = target: HLA-B*57:01; test: IEDB peptide-MHC binding, purified MHC/competitive/radioactivity; filed as Kd, often an IC50 or EC50 that approximates it; ≥ and ≤ were set here for values at or beyond the usual limits of such assays
[20] = target: HLA-A*02:01; test: IEDB peptide-MHC binding, purified MHC/competitive/fluorescence; filed as Kd, often an IC50 or EC50 that approximates it; ≥ and ≤ were set here for values at or beyond the usual limits of such assays
[21] = target: HLA-A*69:01; test: as above
[22] = target: HLA-A*24:03; test: as above
[23] = target: HLA-B*53:01; test: IEDB peptide-MHC binding, purified MHC/competitive/radioactivity; filed as Kd, often an IC50 or EC50 that approximates it; ≥ and ≤ were set here for values at or beyond the usual limits of such assays; conditions: source organism: Dengue virus 1 Brazil/97-11/1997
[24] = target: HLA-A*23:01; test: IEDB peptide-MHC binding, purified MHC/direct/fluorescence; filed as Kd, often an IC50 or EC50 that approximates it; ≥ and ≤ were set here for values at or beyond the usual limits of such assays
[25] = target: HLA-A*26:01; test: as above; conditions: source organism: Orthohantavirus andesense
[26] = target: HLA-A*68:02; test: as above
[27] = target: HLA-A*68:02; test: IEDB peptide-MHC binding, purified MHC/competitive/fluorescence; filed as Kd, often an IC50 or EC50 that approximates it; ≥ and ≤ were set here for values at or beyond the usual limits of such assays; conditions: source organism: Rickettsia sibirica 246
[28] = target: HLA-A*68:02; test: IEDB peptide-MHC binding, purified MHC/competitive/radioactivity; filed as Kd, often an IC50 or EC50 that approximates it; ≥ and ≤ were set here for values at or beyond the usual limits of such assays; conditions: source organism: Dengue virus 1 Brazil/97-11/1997
[29] = target: HLA-A*02:01; test: as above
[30] = target: HLA-A*02:17; test: as above
[31] = target: HLA-A*32:01; test: as above; conditions: source organism: Dengue virus 1 Brazil/97-11/1997
[32] = target: HLA-A*01:01; test: IEDB peptide-MHC binding, purified MHC/competitive/fluorescence; filed as Kd, often an IC50 or EC50 that approximates it; ≥ and ≤ were set here for values at or beyond the usual limits of such assays
[33] = target: HLA-A*02:03; test: IEDB peptide-MHC binding, purified MHC/competitive/radioactivity; filed as Kd, often an IC50 or EC50 that approximates it; ≥ and ≤ were set here for values at or beyond the usual limits of such assays
[34] = target: HLA-A*02:06; test: as above
[35] = target: HLA-A*23:01; test: as above; conditions: source organism: Vaccinia virus WR
[36] = target: HLA-A*24:02; test: as above; conditions: source organism: Vaccinia virus WR
[37] = target: HLA-B*15:01; test: IEDB peptide-MHC binding, purified MHC/direct/fluorescence; filed as Kd, often an IC50 or EC50 that approximates it; ≥ and ≤ were set here for values at or beyond the usual limits of such assays; conditions: source organism: Reston ebolavirus - Reston
[38] = target: HLA-B*15:17; test: IEDB peptide-MHC binding, purified MHC/competitive/fluorescence; filed as Kd, often an IC50 or EC50 that approximates it; ≥ and ≤ were set here for values at or beyond the usual limits of such assays; conditions: source organism: Zaire ebolavirus
[39] = source organism: Orthohantavirus tulaense
[40] = source organism: Dengue virus 2 Jamaica/1409/1983
[41] = source organism: Orthohantavirus andesense
[42] = source organism: Dengue virus 1 Brazil/97-11/1997
[43] = source organism: Dengue virus 1 Singapore/S275/1990
[44] = source organism: Dengue virus 2 Thailand/NGS-C/1944
[45] = source organism: Dengue virus 2 Peru/IQT2913/1996
[46] = source organism: Dengue virus 3 China/80-2/1980
[47] = source organism: Dengue virus 3 Martinique/1243/1999
[48] = source organism: Zaire ebolavirus

Sequence: AESICSYWL
Kd [1, 39]: ≥ 20 µM
Kd [2, 39]: ≥ 20 µM
Kd [3, 39]: ≥ 20 µM
Kd [4, 39]: ≥ 20 µM
Kd [5, 39]: ≥ 20 µM
Kd [6, 39]: ≥ 20 µM
Kd [7]: 0.0003 µM
Kd [8, 39]: ≥ 20 µM
Kd [9, 39]: ≥ 20 µM
Kd [10, 39]: ≥ 20 µM
Kd [11, 39]: ≥ 20 µM
Kd [12, 39]: ≥ 20 µM
Kd [13, 39]: ≥ 20 µM
Kd [14, 39]: ≥ 20 µM
Kd [15, 39]: ≥ 20 µM
Kd [16]: ≥ 20 µM
Kd [17, 39]: ≥ 20 µM

Sequence: APKDLLPWY
Kd ([18]; source organism: Bacillus anthracis str. A0488): 2.54 µM

Sequence: AVSMANIFRG
Kd [19, 40]: 0.0372 µM

Sequence: AWISSMLLY
Kd ([18]; source organism: Brucella suis ATCC 23445): 0.0002 µM

Sequence: DWMDRIEEF
Kd ([1]; source organism: Maporal virus): ≥ 20 µM
Kd ([2]; source organism: Maporal virus): ≥ 20 µM
Kd ([3]; source organism: Maporal virus): ≥ 20 µM
Kd ([4]; source organism: Maporal virus): ≥ 20 µM
Kd ([6]; source organism: Maporal virus): ≥ 20 µM
Kd ([8]; source organism: Maporal virus): ≥ 20 µM
Kd ([9]; source organism: Maporal virus): ≥ 20 µM
Kd [20, 41]: ≥ 20 µM
Kd [21, 41]: ≥ 20 µM
Kd [22, 41]: 0.155 µM
Kd [10, 41]: ≥ 20 µM
Kd [11, 41]: ≥ 20 µM
Kd [12, 41]: ≥ 20 µM
Kd [13, 41]: ≥ 20 µM
Kd [14, 41]: ≥ 20 µM
Kd [15, 41]: ≥ 20 µM
Kd [17, 41]: ≥ 20 µM

Sequence: EAVEDERFW
Kd [23]: 0.0808 µM
Kd [19, 42]: 0.0845 µM

Sequence: EVLKAMSLY
Kd [1, 41]: ≥ 20 µM
Kd [24, 41]: ≥ 20 µM
Kd [3, 41]: ≥ 20 µM
Kd [5, 41]: ≥ 20 µM
Kd [6, 41]: ≥ 20 µM
Kd [25]: 0.0039 µM
Kd [8, 41]: ≥ 20 µM
Kd [9, 41]: ≥ 20 µM
Kd [26, 41]: ≥ 20 µM
Kd [20, 41]: ≥ 20 µM
Kd [10, 41]: ≥ 20 µM
Kd [11, 41]: ≥ 20 µM
Kd [12, 41]: ≥ 20 µM
Kd [13, 41]: ≥ 20 µM
Kd [15, 41]: ≥ 20 µM

Sequence: FIHFDHVPI
Kd [27]: 0.0247 µM

Sequence: GTSHNILVEV
Kd [19, 42]: 0.758 µM
Kd [28]: 0.015 µM

Sequence: KFGPYVSDY
Kd ([18]; source organism: Yersinia pseudotuberculosis IP 31758): 0.11 µM

Sequence: LMLVAHYAI
Kd [29, 43]: 0.00646 µM
Kd [30, 43]: 0.0158 µM
Kd [31]: 0.00557 µM

Sequence: LNRPDIGLY
Kd ([18]; source organism: Campylobacter jejuni): 0.306 µM

Sequence: LTMDREMLY
Kd ([32]; source organism: Bacillus cereus G9241): 0.0051 µM

Sequence: MIIMLIPTV
Kd [29, 44]: 0.00389 µM
Kd [33, 45]: 0.0044 µM
Kd [30, 44]: 0.000634 µM
Kd [34, 45]: 0.0075 µM

Sequence: NTSMAMTCIA
Kd ([19]; source organism: Dengue virus 4 Philippines/H241/1956): 11.7 µM

Kd ([22]; source organism: Escherichia coli 536): 1.06 µM
Sequence: PYKIPATVI

Sequence: QFLAPDDRY
Kd ([18]; source organism: Vibrio cholerae 2740-80): 0.0032 µM

Sequence: QVSRPMFLY
Kd ([32]; source organism: Influenza A virus (A/X-31(H3N2))): ≥ 20 µM

Kd ([18]; source organism: Mus musculus): ≤ 0.0001 µM
Kd ([32]; source organism: Mus musculus): 4.28 µM
Sequence: SWNNHSYLY

Sequence: VLNPYMPSV
Kd [29, 40]: 0.00138 µM
Kd [33, 40]: 0.0066 µM
Kd [30, 40]: 0.00812 µM
Kd [34, 40]: 0.00619 µM

Sequence: VMLLVLCAV
Kd [29, 46]: 0.0147 µM
Kd [33, 47]: 0.775 µM
Kd [30, 46]: ≥ 28.7 µM
Kd [34, 47]: 0.0124 µM

Sequence: VTDTNKFDNY
Kd [35]: ≥ 70 µM
Kd [36]: ≥ 70.3 µM
Kd ([32]; source organism: Vaccinia virus WR): 0.0049 µM

Sequence: WQQWDRQSL
Kd [1, 48]: ≥ 20 µM
Kd [24, 48]: ≥ 20 µM
Kd [2, 48]: ≥ 20 µM
Kd [3, 48]: ≥ 20 µM
Kd [4, 48]: ≥ 20 µM
Kd [5, 48]: ≥ 20 µM
Kd [6, 48]: ≥ 20 µM
Kd [37]: 0.127 µM
Kd [8, 48]: ≥ 20 µM
Kd [9, 48]: ≥ 20 µM
Kd [26, 48]: ≥ 20 µM
Kd [20, 48]: ≥ 20 µM
Kd [21, 48]: ≥ 20 µM
Kd [10, 48]: ≥ 20 µM
Kd [11, 48]: ≥ 20 µM
Kd [13, 48]: ≥ 20 µM
Kd [14, 48]: ≥ 20 µM
Kd [15, 48]: ≥ 20 µM
Kd [38]: ≥ 20 µM
Kd [17, 48]: ≥ 20 µM
